{
  "source": "paper PMC11097922",
  "target": "220 kDa ankyrin-B-GFP",
  "experiment": "proximity ligation",
  "data": [
    {"substance": "NaV1.2 II-III loop-3xHA (wild type) (from UniProt Q99250 991-1211) (domain or fragment)", "values": [
      {"measurement": "PLA signal", "value": 11.6, "unit": "a.u."}
    ]}
  ]
}
